Numbered stars: 1 amine (or outer) side, 2 acyl side, 3 side chain; on linkers, the order of the positions; unused ones are H or OH. Square brackets hold non-standard residues; d marks the D form. Side chains are listed from the residue outwards. Ends that are not written are not given here. * marks the point of attachment. C22 diacid = O=C(O)CCCCCCCCCCCCCCCCCCCCC(=O)*; C20 diacid = O=C(O)CCCCCCCCCCCCCCCCCCC(=O)*; γGlu = O=C(O)[C@H](CCC(=O)[*:2])N[*:1]; εLys = N[C@@H](CCCCN[*:1])C(=O)[*:2]; Trx = NC[C@H]1CC[C@H](C(=O)O)CC1; AEEA = NCCOCCOCC(=O)O; Aib = CC(C)(N)C(=O)O
B1: N{Alpha}Aib8,Glu22,Arg26,Arg34]-GLP-1-(7-37)-peptidyl)-N{Epsilon}[2-[2-[2-[[2-[2-[2-[[(4S)-4-carboxy-4-[[4-[(21-carboxyhenicosanoylamino)methyl]cyclohexanecarbo … (peptide)
peptide: H[Aib]EGTFTSDVSSYLEEQAAREFIAWLVRGRGK([AEEA-AEEA-γGlu-Trx-C22 diacid])GGSK([AEEA-AEEA-γGlu-Trx-C22 diacid])
notes: Double-acylated, C-terminally extended GLP-1 analogue made by SPPS
B2: N{Alpha}([Aib8,Glu22,Arg26,Arg34]-GLP-1-(7-37)-peptidyl)-N{Epsilon}[(2S)-2-amino-6-[[(2S)-2-amino-6-[[(4S)-4-carboxy-4-[[4-[(19-carboxynonadecanoylamino)methyl] … (peptide)
peptide: H[Aib]EGTFTSDVSSYLEEQAAREFIAWLVRGRGK([εLys-εLys-γGlu-Trx-C20 diacid])GGSK([εLys-εLys-γGlu-Trx-C20 diacid])
notes: as for B1

Experiments:
human GLP-1 receptor [1] = target: T1, human GLP-1 receptor (human, UniProt P43220 24-463); assay: cell-based or functional assay
human GLP-1 receptor [2] = target: T1, human GLP-1 receptor; assay: competitive binding (SPA): displacement of 125I-GLP-1(7-36)NH2 from BHK cell membranes with human GLP-1 receptor; high HSA (2.0% final)
Procedure: (§1) For the receptor binding assay in the presence of low HSA (0.005%) 50 μl of the assay buffer was added to each well of an assay plate. […] For the receptor binding assay in the presence of high HSA (2%) 50 μl of the 8% albumin stock was added to each well of an assay plate. […] Cell membrane aliquots were thawed and diluted to their working concentration. Fifty μl were added to each well in the assay plate. […] WGA SPA beads were suspended in assay buffer at 20 mg/ml. The suspension was diluted to 10 mg/ml in assay buffer just prior to addition to the assay plate. Fifty μl were added to each well in the assay plate. […] A 25 μl aliquot was reserved for measuring total counts/well. […] The assay plate was incubated for 2 h at 30° C. […] The assay plate was centrifuged for 10 min. […] The assay plate was read in a Packard TopCount NXT instrument.

human GLP-1 receptor [3] = target: T1, human GLP-1 receptor; assay: competitive binding (SPA): displacement of 125I-GLP-1(7-36)NH2 from BHK cell membranes with human GLP-1 receptor; low HSA (max. 0.001% final)
Procedure: as §1

Binder | EC50 (pM), in vitro potency, CRE luciferase reporter gene assay in BHK cells expressing the human GLP-1 receptor (human GLP-1 receptor [1]) | IC50 (human GLP-1 receptor [2]) | IC50 (human GLP-1 receptor [3])
B1 | 101 pM | 21 nM | 1.6 nM
B2 | 381 pM | 197 nM | 2.2 nM
